Bridge positions count the residues as written; N and C are the ends. Ends that are not written are not given here.
Assays:
[1] = molecular target: T1, murine EPO receptor (Mus musculus, UniProt P14753); assay: EPO dependent cell proliferation assay, FDC-P1/ER cells; type: cell-based
T1 construct: expressed in transfected cells; host or cells: FDC-P1/ER cells
T1 sequence (P14753 25-507): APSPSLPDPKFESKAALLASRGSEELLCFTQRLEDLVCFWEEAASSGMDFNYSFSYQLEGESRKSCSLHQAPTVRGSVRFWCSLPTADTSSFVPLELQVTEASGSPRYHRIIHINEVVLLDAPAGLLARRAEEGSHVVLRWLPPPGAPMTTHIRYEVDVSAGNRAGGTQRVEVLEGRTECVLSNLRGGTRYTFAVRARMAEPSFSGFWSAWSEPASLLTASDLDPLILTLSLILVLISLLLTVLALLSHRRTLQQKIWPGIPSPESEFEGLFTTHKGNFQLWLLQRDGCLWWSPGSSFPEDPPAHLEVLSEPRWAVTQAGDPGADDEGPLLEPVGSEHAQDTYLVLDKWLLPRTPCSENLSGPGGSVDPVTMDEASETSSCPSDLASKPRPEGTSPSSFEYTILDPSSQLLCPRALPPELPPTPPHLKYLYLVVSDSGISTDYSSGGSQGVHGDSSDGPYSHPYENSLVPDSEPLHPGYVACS
Method: After 24 hours, the cells were counted, resuspended at 800,000 cells/ml and dispensed at 40,000 cells/well. Stock solutions of the peptide dimer (5 mM in PBS) and peptide (10 mM in DMSO) were prepared and dispensed in triplicate to final concentrations of 1×10^-10 M through 1×10^-5 M and adjusted to a final volume of 0.2 ml. […] After a 42 hr incubation at 37° C. (ca. 2 cell doublings) 1 μCi/well of [^3 H] thymidine was added and the incubation continued for 6 hr at which time the cells were harvested and counted to assess [^3 H]thymidine incorporation as a measure of cell proliferation.

[2] = tested on: BDF1 mice; assay: Polycythemic exhypoxic mouse bioassay ([59Fe] incorporation into nascent red blood cells); type: in vivo; settings: on a mole equivalent basis
Method: Peptides were assayed for in vivo activity in the polycythemic mouse bioassay adapted from the method described by Cotes and Bangham (1961), Nature 191: 1065-1067. BDF1 mice were allowed to acclimate to ambient conditions for 7-10 days. Body weights were determined for all animals. Low weight animals (<15 grams) were not used. Mice were introduced to hypobaric chambers with a 24 hour conditioning cycle consisting of 0.40% +/-0.02 atm. for 18 hours followed by 6 hours at ambient pressure for a total of 14 days. Following the 14 day period, mice were placed in ambient pressure for 72 hours prior to dosing. […] Peptide sample stock solutions (excluding peptide dimers) were first solubilized in dimethyl sulfoxide (DMSO). Control groups included one group of vehicle alone, and one group of (DMSO) at final concentration of 1%.
Each dose group contained 10 mice. Mice were injected subcutaneously (scruff of neck) with 0.5 ml of the appropriate sample. […]
Mouse body weights were determined twenty four hours following [^59 Fe] administration and the mice were sacrificed forty eight hours following the [^59 Fe] injection. Blood was collected from each animal by cardiac puncture and hematocrits were determined (heparin was used as the anticoagulant). Each blood sample (0.2 ml) was analyzed for [^59 Fe] incorporation using a Packard gamma counter. […]

increase in potency versus parent peptide, murine receptor line [1]: 10 fold
Substance: peptide (SEQ ID NO: 8)/PEG-dimer: PEG dimer of peptide SEQ ID NO: 8, lot not stated for the in vivo bioassay (GGTYSCHFGPLTWVCKPQGG-NH2; disulfide 6-15 (inferred); also: PEG covalent dimer)
in vivo activity of dimer relative to monomer [2]: about 10 fold
